Assay results taken from patent US20160168251A1 (MorphoSys, published 2016).
Changes are numbered by the printed parent chain.

Experiments:
[1] = target: T1, human NPRC on HEK293 cells in the presence of BNP (human, UniProt P17342 27-541; P16860 103-134); test: FACS, HEK NPRC cells with 100 nM BNP
T1 construct: whole, on cells;mature; also called HEK NPRC cells + 100 nM BNP
T1 sequence (looked up): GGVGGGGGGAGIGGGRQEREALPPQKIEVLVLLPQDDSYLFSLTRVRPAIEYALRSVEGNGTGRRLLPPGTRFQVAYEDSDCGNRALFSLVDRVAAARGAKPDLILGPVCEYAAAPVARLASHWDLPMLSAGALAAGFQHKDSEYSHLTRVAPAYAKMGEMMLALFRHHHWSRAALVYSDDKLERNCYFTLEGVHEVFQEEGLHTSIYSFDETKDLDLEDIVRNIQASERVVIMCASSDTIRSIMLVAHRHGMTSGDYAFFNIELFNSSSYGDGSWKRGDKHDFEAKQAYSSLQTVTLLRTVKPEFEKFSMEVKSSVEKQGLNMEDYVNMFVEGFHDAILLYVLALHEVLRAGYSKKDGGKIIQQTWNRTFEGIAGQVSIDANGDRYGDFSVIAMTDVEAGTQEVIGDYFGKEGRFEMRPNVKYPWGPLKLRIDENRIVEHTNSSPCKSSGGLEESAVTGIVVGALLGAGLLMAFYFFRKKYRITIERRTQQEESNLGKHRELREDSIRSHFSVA
T1 sequence (peptide, looked up): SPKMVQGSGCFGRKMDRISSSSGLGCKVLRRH
Protocol: (§1) HEK NPRA cells are detached with Accutase (PAA Laboratories GmbH, Cat. No. L11-007, Austria), harvested by centrifugation (900 rpm, 4 minutes) and resuspended in FACS buffer (PBS/3% FCS/0.02% NaN3) to a final concentration of 10⁶ cells/ml. 100 μl of the cell suspension is transferred to each well of a 96 round bottom plate (TC Microwell 96U, Nunc). […] Cells are washed in 150 μl of FACS buffer, pelleted and resuspended in 50 μl of the solution containing the primary antibody comprising a BEL extract of Fabs, a diluted BEL extract or purified antibody diluted in FACS buffer and incubated on ice for 30 min. Cells are washed again in FACS buffer and resuspended in 50 μl of FACS buffer containing the secondary antibody (R-Phycoerythrin-conjugated Affipure F(ab′)₂ Fragment Goat Anti-Human IgG, Dianova) and incubated on ice for 45 min. Cells are washed twice with FACS buffer and resuspended in 200 μl of FACS buffer for analysis in the FACS Array (BD Biosciences).

[2] = target: T2, human NPRA on HEK293 cells bound to ANP (human, UniProt P01160 124-151); test: cell-based or functional assay
T2 sequence: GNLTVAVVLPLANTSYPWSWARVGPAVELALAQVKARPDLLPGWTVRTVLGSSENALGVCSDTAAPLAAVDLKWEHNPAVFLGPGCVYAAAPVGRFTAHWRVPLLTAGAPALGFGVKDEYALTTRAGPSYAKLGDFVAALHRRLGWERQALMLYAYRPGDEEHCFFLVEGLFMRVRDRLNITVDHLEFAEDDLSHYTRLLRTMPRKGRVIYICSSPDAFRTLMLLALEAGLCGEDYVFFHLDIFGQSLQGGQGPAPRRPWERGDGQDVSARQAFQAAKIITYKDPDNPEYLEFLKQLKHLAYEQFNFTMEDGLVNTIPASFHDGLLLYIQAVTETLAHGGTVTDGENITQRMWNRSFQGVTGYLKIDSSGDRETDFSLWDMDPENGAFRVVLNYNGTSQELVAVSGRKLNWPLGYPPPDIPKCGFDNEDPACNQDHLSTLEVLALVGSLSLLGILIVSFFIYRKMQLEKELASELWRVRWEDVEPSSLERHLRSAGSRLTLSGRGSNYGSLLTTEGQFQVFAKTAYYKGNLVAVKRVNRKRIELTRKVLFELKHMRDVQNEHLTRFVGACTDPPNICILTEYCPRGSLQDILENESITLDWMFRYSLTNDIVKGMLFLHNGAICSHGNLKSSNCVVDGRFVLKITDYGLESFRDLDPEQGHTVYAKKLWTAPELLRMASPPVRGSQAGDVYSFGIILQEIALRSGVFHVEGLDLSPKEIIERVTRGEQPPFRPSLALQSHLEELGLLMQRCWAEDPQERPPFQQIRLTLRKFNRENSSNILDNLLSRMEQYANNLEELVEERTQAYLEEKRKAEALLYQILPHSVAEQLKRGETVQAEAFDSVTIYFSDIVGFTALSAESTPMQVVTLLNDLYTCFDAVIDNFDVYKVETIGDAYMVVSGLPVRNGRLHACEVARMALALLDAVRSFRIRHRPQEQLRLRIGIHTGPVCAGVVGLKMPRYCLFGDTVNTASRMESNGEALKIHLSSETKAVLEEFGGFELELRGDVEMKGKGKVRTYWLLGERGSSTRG
T2 sequence (peptide): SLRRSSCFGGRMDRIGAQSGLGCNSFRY

[3] = target: T3, NPRA-Fc fusion protein bound to urodilatin (human, UniProt P01160 120-151); test: SPR (Biacore 3000), NPRA-Fc amine-coupled on CM5, IgG with 100 nM human urodilatin
T3 construct: Receptor-ligand complex; also called NPRA-Fc in the presence of urodilatin

[4] = target: T4, human NPRC on HEK293 cells, without added ligand (human, UniProt P17342 27-541); test: FACS, HEK NPRC cells without ligand
T4 construct: whole, on cells; also called HEK NPRC cells; natriuretic peptide receptor C
T4 sequence (looked up): T1 sequence (looked up)
Protocol: as §1

[5] = target: T2, human NPRA on HEK293 cells bound to ANP; test: cell-based or functional assay; remark: listed apart in the source
[6] = target: T5, NPRA-Fc fusion protein bound to ANP (human, UniProt P01160 124-151); test: SPR (Biacore 3000), NPRA-Fc amine-coupled on CM5, analyte with 100 nM human ANP
T5 construct: mature; Receptor-ligand complex; 'human ANP' is stated for Biacore, plain 'ANP' for ELISA and HXMS; also called NPRA-Fc+ANP

[7] = target: T6, human NPRC on HEK293 cells in the presence of ANP (human, UniProt P17342 27-541; P01160 124-151); test: FACS, HEK NPRC cells with 100 nM ANP
T6 construct: whole, on cells;mature; also called HEK NPRC cells + 100 nM ANP
T6 sequence (looked up): T1 sequence (looked up)
T6 sequence (peptide, looked up): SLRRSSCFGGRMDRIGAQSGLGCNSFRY
Protocol: as §1

[8] = target: T7, NPRA-Fc fusion protein bound to BNP (human, UniProt P16860 103-134); test: SPR (Biacore 3000), NPRA-Fc amine-coupled on CM5, IgG with 100 nM human BNP
T7 construct: mature; Receptor-ligand complex; also called NPRA-Fc in the presence of BNP
Protocol: In another assay, the purified human NPRA-Fc fusion protein construct is used to develop a surface plasmon resonance (BIAcore) assay for determining affinity and kinetic constants for the antibodies. NPRA-Fc in 10 mM sodium acetate buffer, pH 5.5 is immobilized on a CM5 chip in a Biacore 3000 instrument (GE Healthcare, Biacore, Inc.) through amine coupling at a density of 1000 RU. […] The collected association and dissociation data from each experiment is globally fitted with the association (kₐ) and dissociation (kd) rates fit simultaneously.

[9] = target: T2, human NPRA on HEK293 cells bound to ANP; test: FACS, IgG4_Pro on HEK NPRA cells in the presence of 100 nM ANP
Protocol: as §1

[10] = target: T8, human NPRA on HEK293 cells, without added ligand (human, UniProt P16066 33-1061); test: FACS, HEK NPRA cells without ligand
T8 construct: a signal peptide is not delimited; also called HEK NPRA cells; HEK hNPRA cells
T8 sequence: T2 sequence
Protocol: as §1

B1: 5502 IgG4_Pro (antibody, V domains shown)
VH: QVQLQQSGPGLVKPSQTLSLTCAISGDSVSSRSASWSWIRQSPGRGLEWLGRIYYRSKWYNDYAVSVKSRITINPDTSKNQFSLQLNSVTPEDTAVYYCARMDVPSFRYFDVWGQGTLVTVSS
VL: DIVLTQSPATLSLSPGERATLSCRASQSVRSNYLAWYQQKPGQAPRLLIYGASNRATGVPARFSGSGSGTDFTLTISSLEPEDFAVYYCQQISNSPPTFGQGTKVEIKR
notes: Human IgG4_Pro
binding result [1]: no binding (tested: 20 nM)
cGMP EC50 (nM), titration of the antibody on HEK NPRA cells with 200 pM ANP [2]: 2.1 nM
Kd [3]: 0.211 nM
koff [3]: 0.000448 s⁻¹
kon [3]: 2.12e+06 M⁻¹ s⁻¹
binding result [4]: no binding (tested: 20 nM)
fold increase in the potency of ANP (cGMP, HEK NPRA cells, 200 nM IgG4_Pro) [5]: ≤ 10 fold
Kd [6]: 0.172 nM
koff [6]: 0.000283 s⁻¹
kon [6]: 1.65e+06 M⁻¹ s⁻¹
binding result [7]: no binding (tested: 20 nM)
Kd [8]: 0.413 nM
koff [8]: 0.000563 s⁻¹
kon [8]: 1.36e+06 M⁻¹ s⁻¹
EC50 [9]: 0.68 nM

B2: 5591 IgG4_Pro (antibody, V domains shown)
VH: B1 VH with I53T, K58H, N61Y, D62E, V65Q
VL: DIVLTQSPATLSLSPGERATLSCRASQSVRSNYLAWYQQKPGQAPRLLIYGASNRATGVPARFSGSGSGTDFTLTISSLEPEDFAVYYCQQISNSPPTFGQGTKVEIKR
binding result [1]: no binding (tested: 20 nM)
cGMP EC50 (nM), titration of the antibody on HEK NPRA cells with 200 pM ANP [2]: 0.5 nM
Kd [3]: 0.0928 nM
koff [3]: 0.000238 s⁻¹
kon [3]: 2.56e+06 M⁻¹ s⁻¹
binding result [4]: no binding (tested: 20 nM)
fold increase in the potency of ANP (cGMP, HEK NPRA cells, 200 nM IgG4_Pro) [5]: ≤ 10 fold
Kd [6]: 0.0275 nM
koff [6]: 0.000107 s⁻¹
kon [6]: 3.88e+06 M⁻¹ s⁻¹
binding result [7]: no binding (tested: 20 nM)
binding result [10]: no binding (tested: 20 nM)
Kd [8]: 0.38 nM
koff [8]: 0.00102 s⁻¹
kon [8]: 2.69e+06 M⁻¹ s⁻¹
EC50 [9]: 0.73 nM

B3: 5592 IgG4_Pro (antibody, V domains shown)
VH: B1 VH with I53T, K58H, N61Y, D62E, V65Q
VL: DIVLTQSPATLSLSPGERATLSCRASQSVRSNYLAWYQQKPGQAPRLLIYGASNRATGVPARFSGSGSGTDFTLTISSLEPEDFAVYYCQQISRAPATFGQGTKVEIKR
binding result [1]: no binding (tested: 20 nM)
cGMP EC50 (nM), titration of the antibody on HEK NPRA cells with 200 pM ANP [2]: 1 nM
Kd [3]: 0.0251 nM
koff [3]: 9.94e-05 s⁻¹
kon [3]: 3.96e+06 M⁻¹ s⁻¹
binding result [4]: no binding (tested: 20 nM)
fold increase in the potency of ANP (cGMP, HEK NPRA cells, 200 nM IgG4_Pro) [5]: ≤ 10 fold
Kd [6]: 0.011 nM
koff [6]: 0.000106 s⁻¹
kon [6]: 9.59e+06 M⁻¹ s⁻¹
binding result [7]: no binding (tested: 20 nM)
binding result [10]: no binding (tested: 20 nM)
Kd [8]: 0.0459 nM
koff [8]: 0.00034 s⁻¹
kon [8]: 7.42e+06 M⁻¹ s⁻¹
EC50 [9]: 0.52 nM
